Data: paper PMC4687731

How the values were obtained:
Assay in all cases: EMSA
DMP1γ (DMTF1 isoform γ) = target: T1, DMP1γ (DMTF1 isoform γ) (human, UniProt Q9Y222-3 1-285)
T1 sequence: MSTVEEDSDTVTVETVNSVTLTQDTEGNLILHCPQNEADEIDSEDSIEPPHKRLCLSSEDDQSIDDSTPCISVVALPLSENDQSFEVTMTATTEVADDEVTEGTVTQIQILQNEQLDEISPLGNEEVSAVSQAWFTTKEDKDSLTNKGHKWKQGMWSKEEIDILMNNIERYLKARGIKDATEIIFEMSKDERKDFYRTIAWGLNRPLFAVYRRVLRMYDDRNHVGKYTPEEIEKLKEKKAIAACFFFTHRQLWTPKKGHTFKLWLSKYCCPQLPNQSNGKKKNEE

DMP1 ΔMHR = target: T2, DMP1 ΔMHR (human, UniProt Q9Y222 1-223)
T2 sequence: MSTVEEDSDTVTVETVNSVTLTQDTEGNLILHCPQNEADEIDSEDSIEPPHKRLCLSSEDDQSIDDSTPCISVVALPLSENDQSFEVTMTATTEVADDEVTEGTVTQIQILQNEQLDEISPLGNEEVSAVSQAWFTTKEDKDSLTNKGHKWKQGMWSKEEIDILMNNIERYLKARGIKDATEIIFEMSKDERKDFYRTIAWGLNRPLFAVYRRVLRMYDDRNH

DMP1β (DMTF1 isoform β) = target: T3, DMP1β (DMTF1 isoform β) (human, UniProt Q9Y222-2 1-272)
T3 sequence: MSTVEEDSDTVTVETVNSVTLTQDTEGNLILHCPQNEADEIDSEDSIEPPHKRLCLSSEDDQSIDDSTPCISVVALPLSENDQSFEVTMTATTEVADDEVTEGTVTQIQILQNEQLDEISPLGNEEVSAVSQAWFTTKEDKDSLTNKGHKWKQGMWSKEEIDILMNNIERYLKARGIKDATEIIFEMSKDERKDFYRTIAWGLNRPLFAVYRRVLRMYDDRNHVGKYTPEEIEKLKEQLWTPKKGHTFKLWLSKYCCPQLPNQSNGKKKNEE

DMP1α (DMTF1 isoform α) = target: T4, DMP1α (DMTF1 isoform α) (human, UniProt Q9Y222 1-760)
T4 sequence: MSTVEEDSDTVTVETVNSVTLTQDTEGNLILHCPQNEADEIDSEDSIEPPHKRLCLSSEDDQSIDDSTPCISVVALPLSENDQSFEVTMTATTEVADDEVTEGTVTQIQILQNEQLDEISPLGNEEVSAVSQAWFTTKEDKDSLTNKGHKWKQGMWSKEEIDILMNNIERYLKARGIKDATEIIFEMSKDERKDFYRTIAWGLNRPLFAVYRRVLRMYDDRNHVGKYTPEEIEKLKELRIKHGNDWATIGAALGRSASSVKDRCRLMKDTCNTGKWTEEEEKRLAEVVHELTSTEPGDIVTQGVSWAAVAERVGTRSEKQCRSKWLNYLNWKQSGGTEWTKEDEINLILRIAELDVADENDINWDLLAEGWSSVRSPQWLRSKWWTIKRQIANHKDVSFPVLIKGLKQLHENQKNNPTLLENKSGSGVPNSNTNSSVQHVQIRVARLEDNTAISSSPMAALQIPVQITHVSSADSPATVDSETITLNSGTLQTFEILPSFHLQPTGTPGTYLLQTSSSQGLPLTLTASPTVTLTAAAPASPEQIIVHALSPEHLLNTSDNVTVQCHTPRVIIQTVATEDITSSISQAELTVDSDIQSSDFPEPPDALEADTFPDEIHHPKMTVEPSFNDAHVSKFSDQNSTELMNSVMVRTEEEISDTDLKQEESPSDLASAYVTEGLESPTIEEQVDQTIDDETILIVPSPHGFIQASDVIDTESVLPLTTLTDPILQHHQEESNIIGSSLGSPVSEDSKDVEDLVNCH

B1: human ARF promoter DMP1 site probe (dsDNA)
DNA 1: GTCAGGTGACGGATGTAGCTAGG
DNA 2: CCTAGCTACATCCGTCACCTGAC
B1: no binding (DMP1γ (DMTF1 isoform γ)); no binding (DMP1 ΔMHR); no binding (DMP1β (DMTF1 isoform β)). B1: binds (DMP1α (DMTF1 isoform α)).
